Columns and labels:
[1] = target: RNF-MD S5i (E766K in RNF20 and K57E/R804E in RNF40) (human) (UniProt Q5VTR2); test: SPR; RNF-MD immobilised on a CM5 chip, intein-WAC flown over; Biacore 8K, 25°C, 20 mM HEPES (pH 7.5), 200 mM sodium chloride, 0.02% Tween 20
[2] = target: RNF-MD S4i (D780K in RNF20) (human) (UniProt Q5VTR2); test: as above

B1: intein-CBD-tagged WAC-CT (WAC residues 570–647) (domain or fragment)
chain: HVQGWPADHAEKQASRLREEAHNMGTIHMSEICTELKNLRSLVRVCEIQATLREQRILFLRQQIKELEKLKNQNSFMV
With B1 the Kd [1] was 464 nM, the koff [1] was 0.0142 s⁻¹ and the kon [1] was 30500 M⁻¹ s⁻¹.

B2: intein-WAC S4 (R630E) (domain or fragment)
chain: HVQGWPADHAEKQASRLREEAHNMGTIHMSEICTELKNLRSLVRVCEIQATLREQRILFLEQQIKELEKLKNQNSFMV
With B2 the Kd [2] was 249 nM, the koff [2] was 0.0435 s⁻¹ and the kon [2] was 17500 M⁻¹ s⁻¹.

— article PMC12802937
